The values that follow come from patent publication US20030049732A1 (Human Genome Sciences, published 2003).

Where a chain is given by its changes, count along the chain named. Names and notes keep the numbering of the source.

Sequences and labels used below:
B1: Caspase-9 (enzyme, UniProt P55211 1-416, looked up)
chain: MDEADRRLLRRCRLRLVEELQVDQLWDALLSRELFRPHMIEDIQRAGSGSRRDQARQLIIDLETRGSQALPLFISCLEDTGQDMLASFLRTNRQAAKLSKPTLENLTPVVLRPEIRKPEVLRPETPRPVDIGSGGFGDVGALESLRGNADLAYILSMEPCGHCLIINNVNFCRESGLRTRTGSNIDCEKLRRRFSSLHFMVEVKGDLTAKKMVLALLELAQQDHGALDCCVVVILSHGCQASHLQFPGAVYGTDGCPVSVEKIVNIFNGTSCPSLGGKPKLFFIQACGGEQKDHGFEVASTSPEDESPGSNPEPDATPFQEGLRTFDQLDAISSLPTPSDIFVSYSTFPGFVSWRDPKSGSWYVETLDDIFEQWAHSEDLQSLLLRVANAVSVKGIYKQMPGCFNFLRKKLFFKTS
notes: also called procaspase-9; procaspas-9
B2: Nod1 (other)
chain: MEEQGHSEMEIIPSESHPHIQLLKSNRELLVTHIRNTQCLVDNLLKNDYFSAEDAEIVCACPTQPDKVRKILDLVQSKGEEVSEFFLYLLQQLADAYVDLRPWLLEIGFSPSLLTQSKVVVNTDPVSRYTQQLRHHLGRDSKFVLCYAQKEELLLEEIYMDTIMELVGFSNESLGSLNSLACLLDHTTGILNEQGETIFILGDAGVGKSMLLQRLQSLWATGRLDAGVKFFFHFRCRMFSCFKESDRLCLQDLLFKHYCYPERDPEEVFAFLLRFPHVALFTFDGLDELHSDLDLSRVPDSSCPWEPAHPLVLLANLLSGKLLKGASKLLTARTGIEVPRQFLRKKVLLRGFSPSHLRAYARRMFPERALQDRLLSQLEANPNLCSLCSVPLFCWIIFRCFQHFRAAFEGSPQLPDCTMTLTDVFLLVTEVHLNRMQPSSLVQRNTRSPVETLHAGRDTLCSLGQVAHRGMEKSLFVFTQEEVQASGLQERDMQLGFLRALPELGPGGDQQSYEFFHLTLQAFFTAFFLVLDDRVGTQELLRFFQEWMPPAGAATTSCYPPFLPFQCLQGSGPAREDLFKNKDHFQFTNLFLCGLLSKAKQKLLRHLVPAAALRRKRKALWAHLFSSLRGYLKSLPRVQVESFNQVQAMPTFIWMLRCIYETQSQKVGQLAARGICANYLKLTYCNACSADCSALSFVLHHFPKRLALDLDNNNLNDYGVRELQPCFSRLTVLRLSVNQITDGGVKVLSEELTKYKIVTYLGLYNNQITDVGARYVTKILDECKGLTHLKLGKNKITSEGGKYLALAVKNSKSISEVGMWGNQVGDEGAKAFAEALRNHPSLTTLSLASNGISTEGGKSLARALQQNTSLEILWLTQNELNDEVAESLAEMLKVNQTLKHLWLIQNQITAKGTAQLADALQSNTGITEICLNGNLIKPEEAKVYEDEKRIICF
notes: also called wild-type Nod1; WT Nod1
B3: Caspase-9 C287S (enzyme, UniProt P55211 1-416, looked up)
chain: B1 chain with C287S
notes: Named only once, in the sentence on Nod1 V41Q
B4: Nod1 mutant, residues 649-953 (other)
chain: MPTFIWMLRCIYETQSQKVGQLAARGICANYLKLTYCNACSADCSALSFVLHHFPKRLALDLDNNNLNDYGVRELQPCFSRLTVLRLSVNQITDGGVKVLSEELTKYKIVTYLGLYNNQITDVGARYVTKILDECKGLTHLKLGKNKITSEGGKYLALAVKNSKSISEVGMWGNQVGDEGAKAFAEALRNHPSLTTLSLASNGISTEGGKSLARALQQNTSLEILWLTQNELNDEVAESLAEMLKVNQTLKHLWLIQNQITAKGTAQLADALQSNTGITEICLNGNLIKPEEAKVYEDEKRIICF
notes: also called the LRRs of Nod1; mutant containing the LRRs

Test [1] addresses T1, Nod1 mutant, residues 126-953 (human, UniProt Q9Y239 126-953).
T1 construct: also called mutant lacking the CARD
T1 sequence: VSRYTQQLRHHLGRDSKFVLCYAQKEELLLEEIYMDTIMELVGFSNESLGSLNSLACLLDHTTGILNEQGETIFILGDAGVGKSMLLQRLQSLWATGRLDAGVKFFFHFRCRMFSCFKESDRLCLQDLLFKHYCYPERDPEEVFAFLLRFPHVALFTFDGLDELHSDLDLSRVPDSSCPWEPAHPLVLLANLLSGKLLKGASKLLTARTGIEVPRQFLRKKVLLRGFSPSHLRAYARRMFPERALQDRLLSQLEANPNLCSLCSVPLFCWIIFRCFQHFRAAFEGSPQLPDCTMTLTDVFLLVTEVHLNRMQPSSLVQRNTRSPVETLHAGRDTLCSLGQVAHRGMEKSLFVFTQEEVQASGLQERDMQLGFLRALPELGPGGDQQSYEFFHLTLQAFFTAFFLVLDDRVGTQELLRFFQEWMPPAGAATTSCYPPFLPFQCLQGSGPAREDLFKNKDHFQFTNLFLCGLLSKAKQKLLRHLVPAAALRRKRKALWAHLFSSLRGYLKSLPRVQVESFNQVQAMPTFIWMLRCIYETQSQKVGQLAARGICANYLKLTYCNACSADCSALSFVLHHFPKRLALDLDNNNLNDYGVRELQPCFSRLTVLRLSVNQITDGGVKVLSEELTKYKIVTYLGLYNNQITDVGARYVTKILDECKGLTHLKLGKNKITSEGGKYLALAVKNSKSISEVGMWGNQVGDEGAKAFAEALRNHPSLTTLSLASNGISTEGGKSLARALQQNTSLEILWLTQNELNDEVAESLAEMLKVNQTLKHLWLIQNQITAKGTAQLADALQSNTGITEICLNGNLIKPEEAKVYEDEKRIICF
Nature of the test: co-immunoprecipitation from co-transfected 293T cells, immunoblot. The text has this:
(§1) Both Ced-4 and Apaf-1 associate with their target caspases via their corresponding CARDs (Zou et al., Cell, 90:405 (1997); Hu et al., Proc. Natl. Acad. Sci. USA, 95:4386 (1998); ); Chinnaiyan et al., Nature, 388:728 (1997); Hu et al., Proc. Natl. Acad. Sci. USA, 95:4386 (1998); Srinivasula et al., Mol. Cell, 1:946 (1998); Chaudhary et al., J. Biol. Chem., 273:17708 (1998); Yang et al., Science, 281:1355 (1998)).

The target in a further test is T2, Apaf-1 (UniProt O14727-3 1-1194, limits assumed).
T2 sequence (looked up): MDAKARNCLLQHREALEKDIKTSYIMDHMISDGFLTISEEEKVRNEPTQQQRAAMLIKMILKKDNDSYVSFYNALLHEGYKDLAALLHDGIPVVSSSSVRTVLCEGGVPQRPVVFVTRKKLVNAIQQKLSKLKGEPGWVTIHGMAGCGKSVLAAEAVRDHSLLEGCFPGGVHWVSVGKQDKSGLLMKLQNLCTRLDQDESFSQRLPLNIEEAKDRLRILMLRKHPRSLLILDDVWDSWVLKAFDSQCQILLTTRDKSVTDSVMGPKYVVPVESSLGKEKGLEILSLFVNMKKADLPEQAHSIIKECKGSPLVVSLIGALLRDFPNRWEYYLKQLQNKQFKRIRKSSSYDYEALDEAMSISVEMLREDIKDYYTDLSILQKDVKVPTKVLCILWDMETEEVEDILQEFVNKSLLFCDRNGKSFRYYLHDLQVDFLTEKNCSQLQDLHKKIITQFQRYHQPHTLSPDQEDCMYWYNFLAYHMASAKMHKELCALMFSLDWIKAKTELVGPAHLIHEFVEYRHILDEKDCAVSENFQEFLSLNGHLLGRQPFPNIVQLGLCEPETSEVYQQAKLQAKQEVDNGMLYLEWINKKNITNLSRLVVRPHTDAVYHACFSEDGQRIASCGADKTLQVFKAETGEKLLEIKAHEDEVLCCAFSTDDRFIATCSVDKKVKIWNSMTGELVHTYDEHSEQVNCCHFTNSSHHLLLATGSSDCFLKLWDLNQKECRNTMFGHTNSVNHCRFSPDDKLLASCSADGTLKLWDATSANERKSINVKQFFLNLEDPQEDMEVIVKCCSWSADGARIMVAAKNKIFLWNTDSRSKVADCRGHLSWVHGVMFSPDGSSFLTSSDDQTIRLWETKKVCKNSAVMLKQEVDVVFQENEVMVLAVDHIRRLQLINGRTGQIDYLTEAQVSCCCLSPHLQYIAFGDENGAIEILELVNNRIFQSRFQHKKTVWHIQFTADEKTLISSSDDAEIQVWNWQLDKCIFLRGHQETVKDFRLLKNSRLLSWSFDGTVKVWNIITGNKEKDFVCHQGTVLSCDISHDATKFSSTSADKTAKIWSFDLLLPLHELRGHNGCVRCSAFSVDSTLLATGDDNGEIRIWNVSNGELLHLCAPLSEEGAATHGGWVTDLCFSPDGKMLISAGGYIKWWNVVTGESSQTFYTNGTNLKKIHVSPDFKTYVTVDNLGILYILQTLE
Nature of the test: co-immunoprecipitation, tagged proteins transiently expressed in 293T cells. The text has this: The CARD and its structurally related death effector domain (DED) are peptide motifs that mediate interactions between apoptosis-regulatory proteins (Science 281:1301 (1998); Hofmann et al., Trends Biochem. Sci. 22:155 (1998)).

A further test deals with T3, Nod1 V41Q (human, UniProt Q9Y239 1-953).
T3 construct: also called V41 Q point mutant in the CARD
T3 sequence: B2 chain with V41Q
Nature of the test: co-immunoprecipitation from co-transfected 293T cells, immunoblot.
Description: as §1
Background: A western blot detects proteins with antibodies after separation by electrophoresis.

The target of the test “Caspase-9” is B1. Described as above.
Description: as §1

For another test, the target named is T4, RICK (UniProt O43353 1-540).
T4 construct: also called serine-threonine kinase with a CARD
T4 sequence (O43353 whole entry): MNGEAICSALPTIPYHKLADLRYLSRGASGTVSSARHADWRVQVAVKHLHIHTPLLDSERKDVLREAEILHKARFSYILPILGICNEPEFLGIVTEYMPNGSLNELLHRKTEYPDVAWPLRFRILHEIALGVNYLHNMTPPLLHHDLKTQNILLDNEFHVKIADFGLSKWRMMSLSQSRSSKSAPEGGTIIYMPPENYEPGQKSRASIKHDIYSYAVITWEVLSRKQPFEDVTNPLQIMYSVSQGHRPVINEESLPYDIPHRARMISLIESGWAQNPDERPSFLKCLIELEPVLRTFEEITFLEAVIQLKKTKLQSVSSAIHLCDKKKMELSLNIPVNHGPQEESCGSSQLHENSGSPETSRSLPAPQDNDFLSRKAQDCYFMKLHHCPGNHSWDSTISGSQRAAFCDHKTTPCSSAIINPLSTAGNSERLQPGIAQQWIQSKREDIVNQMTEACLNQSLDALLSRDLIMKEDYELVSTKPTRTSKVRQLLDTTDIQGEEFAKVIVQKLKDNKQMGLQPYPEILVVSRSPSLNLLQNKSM
Nature of the test: co-transfection of WT or mutant Nod1 and RICK in 293T cells.

Turning to B1, the binding result in test [1] was “no binding”.
On to B2, for which the binding result with Apaf-1 is “no binding”.
As to B3, the binding result with Nod1 V41Q is listed as “no binding”.
In the case of B4, the binding result in the test with Caspase-9 and in the test with RICK was “no binding” throughout.
